Measured values: patent US20260286322A1, “PROTEIN TYROSINE P[…] DOMAIN PEPTIDE DIMER FOR NERVOUS SYSTEM REPAIR” (NervGen Pharma Corp., priority 2023, published 2026)
Ends that are not written are not given here.

Key:
[1] = In vitro stability in dog plasma; assay type: in vitro ADME; settings: after 30 minutes of incubation, 37° C., 1.6 μM
Procedure: (§1) Stability of Compound 7 (human variant) in physiological buffer (Hanks Balanced Salt Solution, HBSS) and in plasma was evaluated in comparison with Compound 3.
(§2) Compound stability was defined as % recovery of the compound after 5 min, 15 min, and 30 min of incubation in the presence of corresponding plasma.
(§3) 200 μL of 1.6 μM Compound 3 and Compound 7 solutions were incubated in the matrix (Hank's Balanced Salt Solution or plasma) at 37° C. for 0, 5, 15, or 30 minutes. The incubation was followed by addition of 200 μL acetonitrile, vortexing and subsequent acidification with 45 μL of pure acetic acid. After additional vortexing, the resulting mixture was centrifuged for 5 min at 14,000 rpm and the supernatant was collected for analysis.
(§4) Determination of the Compound 3 or Compound 7 levels in the supernatant samples prepared as described above was performed using an LC-MS/MS method as follows: 40 μL of 5 μM Compound 7 in 10% acetic acid aqueous solution was added to 160 μL of the supernatant. […]
(§5) Percentages of Compound 3 and Compound 7 recovery after 0 minutes (at the start of the experiment), 5 minutes, 15 minutes, and 30 minutes incubation time points were calculated by dividing the corresponding peak areas by the peak area obtained from the samples prepared with no incubation (0 minutes of incubation time). […]

[2] = In vitro stability in rat plasma; assay type: in vitro ADME; settings: after 30 minutes of incubation, 37° C., 1.6 μM
Procedure: as §1, §2, §3, §4, §5

[3] = Self-assembly by negative stain transmission electron microscopy; assay type: physicochemical; settings: for colloidal structures from self-assembly in isotonic saline (TEM): 20 mg/mL in 0.9% (w/v) sodium chloride; for colloidal structures from self-assembly in water (TEM): 20 mg/mL in sterile water
Procedure: The patterns of self-assembly of Compound 7 and Compound 3 were analyzed by negative stain transmission electron microscopy.
Compound 3 and Compound 7 were dissolved in sterile water or in 0.9% (w/v) sodium chloride in sterile water to obtain a 20 mg/mL solution. Formvar/carbon coated grids were exposed to […] drops of the Compound 3 or Compound 7 solutions for approximately 1 minute, blotted and then exposed to […] drops of sterile water for 10 seconds, blotted again and then stained with 2% (w/v) aqueous uranyl acetate for 30 seconds, The stained samples were exposed to […] drops of sterile water for 10 seconds and blotted dry prior to examination by transmission electron microscopy.

[4] = In vitro stability in human plasma; assay type: in vitro ADME; settings: after 30 minutes of incubation, 37° C., 1.6 μM
Procedure: as §1, §2, §3, §4, §5

[5] = In vitro stability in physiological buffer (Hanks Balanced Salt Solution, HBSS); assay type: physicochemical; settings: 30 minutes incubation, 37° C., 1.6 μM
Procedure: as §1, §2, §3, §4, §5

TAT-Cys-PTPRS (GRKKRRQRRRCDMAEHTERLKANDSLKLSQEYESI) [Compound 3]
recovery rate in dog plasma [1]: low stability | recovery rate in rat plasma [2]: low stability | colloidal structures from self-assembly in isotonic saline (TEM) [3]: amyloid-like fibrillar meshwork | colloidal structures from self-assembly in water (TEM) [3]: rod-shaped nanostructures | recovery rate in human plasma [4]: low stability | % recovery in HBSS [5]: about 42%

TAT-Cys-human PTPRS wedge domain homodimer (GRKKRRQRRRCDMAEHTERLKANDSLKLSQEYESI; also: disulfide homodimer) [Compound 7]
recovery rate in dog plasma [1]: 100% | recovery rate in rat plasma [2]: 92% | colloidal structures from self-assembly in isotonic saline (TEM) [3]: larger-in-size helical colloidal particles | colloidal structures from self-assembly in water (TEM) [3]: rod-shaped nanostructures | recovery rate in human plasma [4]: 99% | % recovery in HBSS [5]: 90%
